The values below are quoted from earlier work in PMC3432176.

The target of the series is preMADH (Paracoccus denitrificans) (UniProt P22619). Nature of the series: kinetics.
UniProt P22619, sequence (P22619 58-188, chain 1 of 2): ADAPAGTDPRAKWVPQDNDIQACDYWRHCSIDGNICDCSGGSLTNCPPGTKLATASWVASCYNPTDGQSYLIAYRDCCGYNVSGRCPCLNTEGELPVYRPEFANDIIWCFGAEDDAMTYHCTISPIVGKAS
UniProt P22619, sequence (P29894 29-417, chain 2 of 2, further chain): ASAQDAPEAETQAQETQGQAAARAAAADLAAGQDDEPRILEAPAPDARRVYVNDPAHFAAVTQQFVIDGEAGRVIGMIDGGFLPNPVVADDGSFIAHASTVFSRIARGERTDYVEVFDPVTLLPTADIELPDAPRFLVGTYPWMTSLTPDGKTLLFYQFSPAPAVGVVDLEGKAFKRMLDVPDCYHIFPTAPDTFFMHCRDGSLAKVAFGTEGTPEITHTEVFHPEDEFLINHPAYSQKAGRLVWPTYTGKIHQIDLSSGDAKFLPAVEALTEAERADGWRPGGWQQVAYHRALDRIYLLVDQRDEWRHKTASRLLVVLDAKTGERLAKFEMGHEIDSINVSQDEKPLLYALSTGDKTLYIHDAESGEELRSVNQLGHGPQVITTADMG

With MauG (from UniProt Q51658), the dissociation constant (Kd) is below 1500 nM.
